Literature values in patent US12150974B2, “Conjugates with inhibitory receptor ligands to induce anergy in insulin-binding B cells” (University of Kansas, priority 2021, dated 2024).

Biological target: T1, CD20 (Homo sapiens, UniProt P11836)
T1 construct: host or cells: B cells of trial patients (endogenous)
T1 sequence (P11836 1-297): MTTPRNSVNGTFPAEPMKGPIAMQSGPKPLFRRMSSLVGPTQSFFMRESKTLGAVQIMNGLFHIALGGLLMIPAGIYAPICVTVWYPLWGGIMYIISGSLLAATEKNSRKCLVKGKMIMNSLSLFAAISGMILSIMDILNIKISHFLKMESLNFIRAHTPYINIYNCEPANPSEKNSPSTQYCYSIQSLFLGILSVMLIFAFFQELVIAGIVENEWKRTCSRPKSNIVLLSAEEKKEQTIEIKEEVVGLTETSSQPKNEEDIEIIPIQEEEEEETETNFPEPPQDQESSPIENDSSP
Settings: at 1 year

clinical outcome in T1D: beta cell preservation
Substance: rituximab
